{"source": "patent US20030082740A1", "about": "“Histidine proline rich glycoprotein (HPRG) as an anti-angiogenic and anti-tumor agent” (priority 2001, published 2003)", "key": {"HUVEC": {"system": "HUVEC", "test": "Endothelial cell tube formation on Matrigel", "type": "cell-based, human", "settings": "for Inhibits Angiogenesis (Matrigel® assay): tube formation, concentration not stated", "method": "Endothelial cells, for example, human umbilical vein endothelial cells (HUVEC) or human microvascular endothelial cells (HMVEC) which can be prepared or obtained commercially, are mixed at a concentration of 2×10^5 cells/mL with fibrinogen (5 mg/mL in phosphate buffered saline (PBS) in a 1:1 (v/v) ratio. Thrombin is added (5 units/ mL final concentration) and the mixture is immediately transferred to a 24-well plate (0.5 mL per well). The fibrin gel is allowed to form and then VEGF and bFGF are added to the wells (each at 5 ng/mL final concentration) along with the test compound. The cells are incubated at 37° C. in 5% CO2 for 4 days at which time the cells in each well are counted and classified as either rounded, elongated with no branches, elongated with one branch, or elongated with 2 or more branches. Results are expressed as the average of 5 different wells for each concentration of compound. Typically, in the presence of angiogenic inhibitors, cells remain either rounded or form undifferentiated tubes (e.g. 0 or 1 branch).\nThis assay is recognized in the art to be predictive of angiogenic (or anti-angiogenic) efficacy in vivo (Min, H Y et al., Cancer Res. 56: 2428-2433,1996). In an alternate assay, endothelial cell tube formation is observed when endothelial cells are cultured on Matrigel® (Schnaper et al., J. Cell. Physiol. 165:107-118 1995). Endothelial cells (1×10^4 cells/well) are transferred onto Matrigel®-coated 24-well plates, and tube formation is quantitated after 48 hrs. Inhibitors are tested by adding them either at the same time as the endothelial cells or at various time points thereafter. Tube formation can also be stimulated by adding (a) angiogenic growth factors such as bFGF or VEGF, (b) differentiation stimulating agents (e.g.,. PMA) or (c) a combination of these.\nHUVEC were seeded onto Matrigel®-coated 96 well plates. Photomicrographs showing results are in FIGS. 4A and 4B.\nEndothelial cell tube formation on Matrigel® was stimulated by incubation for 24 hr with FGF-2 (20 ng/ml ), VEGF (20 ng/ml ) and PMA (40 ng/ml ) for 24 hours (FIG. 4A).\nMatrigel® tube formation assays in vitro were carried out as described above."}, "[1]": {"system": "CAM of an 8-day old chick embryo", "test": "Chick chorioallantoic membrane (CAM) angiogenesis assay", "type": "in vivo", "settings": "inhibitor at 20 μg/ml with bFGF 30 μg/ml; counted 4 days after implantation", "method": "This assay is performed essentially as described by Nguyen et al. (Microvascular Res. 47:31-40 (1994)). A mesh containing either angiogenic factors (bFGF) or tumor cells plus inhibitors is placed onto the CAM of an 8-day old chick embryo and the CAM observed for 3-9 days after implantation of the sample. Angiogenesis is quantitated by determining the percentage of squares in the mesh which contain blood vessels.\nThis assay was performed essentially as described by Nguyen et al. (Microvascular Res. 47:31-40 (1994)). […] Angiogenesis was quantitated by counting the number of microvessels that contacted the filter. In this experiment, microvessel were counted 4 days after implantation of the filter."}, "[2]": {"system": "human umbilical vein endothelial cell (HUVEC)", "test": "bFGF-stimulated HUVEC proliferation (MTS)", "type": "cell-based", "settings": "48 hours", "method": "The ability of the compounds of the invention to inhibit the proliferation of EC's may be determined in a 96-well format. Type I collagen (gelatin) is used to coat the wells of the plate (0.1-1 mg/mL in PBS, 0.1 mL per well for 30 minutes at room temperature). After washing the plate (3× w/PBS), 3-6,000 cells are plated per well and allowed to attach for 4 hrs (37° C./5% CO2) in Endothelial Growth Medium (EGM; Clonetics) or M199 media containing 0.1-2% FBS. The media and any unattached cells are removed at the end of 4 hrs and fresh media containing bFGF (1-10 ng/mL) or VEGF (1-10 ng/mL) is added to each well. Compounds to be tested are added last and the plate is allowed to incubate (37° C./5% CO2) for 24-48 hrs. MTS (Promega) is added to each well and allowed to incubate from 1-4 hrs. The absorbance at 490 nm, which is proportional to the cell number, is then measured to determine the differences in proliferation between control wells and those containing test compounds.\nbFGF is used to stimulate human umbilical vein endothelial cell (HUVEC) proliferation. Cells are incubated in the presence of bFGF alone or with added inhibitors of proliferation for 48 hours in a 96 well plate. Proliferation is then measured using the colorimetric reagent, MTS. […]"}, "[3]": {"system": "angiogenesis stimulated by FGF-2", "test": "Matrigel plug model, angiogenesis stimulated by FGF-2", "type": "in vivo, mice", "settings": "0.25 μM in plug; 7 days", "method": "This assay is performed essentially as described by Passaniti et al. (Lab Invest. 67:519-528 (1992). Ice-cold Matrigel® (e.g., 500 μL) (Collaborative Biomedical Products, Inc., Bedford, Mass.) is mixed with heparin (e.g., 50 μg/ml), FGF-2 (e.g., 400 ng/ml) and the compound to be tested. In some assays, bFGF may be substituted with tumor cells as the angiogenic stimulus. The Matrigel® mixture is injected subcutaneously into 4-8 week-old athymic nude mice at sites near the abdominal midline, preferably 3 injections per mouse. The injected Matrigel® forms a palpable solid gel. Injection sites are chosen such that each animal receives a positive control plug (such as FGF-2+ heparin), a negative control plug (e.g., buffer+heparin) and a plug that includes the compound being tested for its effect on angiogenesis, e.g., (FGF-2+heparin+compound). […] Hemoglobin (Hb) levels are determined using Drabkin's solution (e.g., obtained from Sigma) according to the manufacturers' instructions. […] The amount of fluorescence in the dispersed plug, determined fluorimetrically, also serves as a measure of angiogenesis in the plug. […]\nIn this study, ice-cold Matrigel® (500 μL) was mixed with heparin (50 μg/ml), FGF-2 (400 ng/ml) and the compound to be tested. […] Hemoglobin levels were determined using Drabkin's solution (from Sigma) according to the manufacturers' instructions."}, "[4]": {"system": "Lewis lung adenocarcinoma 3LL cells", "test": "Matrigel plug model, 3LL tumor cell-mediated angiogenesis", "type": "in vivo, mouse", "settings": "concentration not given; FIG. 7 legend", "description": "In this assay, tumor cells, for example 1-5×10^6 cells of the 3LL Lewis lung carcinoma or the rat prostate cell line MatLyLu, are mixed with Matrigel® and then injected into the flank of a mouse following the protocol described in Sec. B., above. A mass of tumor cells and a powerful angiogenic response can be observed in the plugs after about 5 to 7 days. The anti-tumor and anti-angiogenic action of a compound in an actual tumor environment can be evaluated by including it in the plug. Measurement is then made of tumor weight, Hb levels or fluorescence levels (of a dextran-fluorophore conjugate injected prior to sacrifice). To measure Hb or fluorescence, the plugs are first homogenize with a tissue homogenizer.\nThe methods used in this study were essentially the same as described in Example VI except that 3LL tumor cells were used to stimulate angiogenesis instead of bFGF. Lewis lung adenocarcinoma 3LL cells (10^6 cells/plug) were mixed with cold Matrigel prior to injection. After seven days, the animals are sacrificed by cervical dislocation and the Matrigel® plugs recovered and processed as above."}, "caspase-3": {"system": "caspase-3", "test": "Caspase-3 activity in bFGF-stimulated HUVEC", "type": "cell-based, human", "settings": "rHPRG at 10 and 100 nM, H/P at similar concentrations, relative to HKa", "method": "The ability of the compounds of the invention to promote apoptosis of EC's may be determined by measuring activation of caspase-3. Type I collagen (gelatin) is used to coat a P100 plate and 5×10^5 ECs are seeded in EGM containing 10% FBS. After 24 hours (at 37° C. in 5% CO2) the medium is replaced by EGM containing 2% FBS, 10 ng/ml bFGF and the desired test compound. The cells are harvested after 6 hours, cell lysates prepared in 1% Triton and assayed using the EnzChek® Caspase-3 Assay Kit #1 (Molecular Probes) according to the manufactures' instructions.\nIn order to evaluate whether the observed anti-proliferative activity of HPRG was due to an induction of apoptosis, the activity of caspase-3 (an enzyme that is central to several pro-apoptotic pathways) was measured. HUVEC were grown in 100 mm^2 petri dishes in the presence of bFGF or bFGF+HPRG. Cells were extracted and caspase-3 activity measured using a fluorescent substrate."}}, "note": "Entries after “also recorded” stand apart in the source; their conditions may differ."}
{"molecule": "His-His-Pro-His-Gly (HHPHG; printed: His-His-Pro-His-Gly) [ATN230]", "values": [{"measurement": "Inhibits Angiogenesis (Matrigel® assay)", "setting": "HUVEC", "value": "Yes"}, {"measurement": "Inhibits Angiogenesis (Matrigel® assay)", "setting": "HUVEC; listed as HHPHG", "value": "active"}]}
{"molecule": "APPHG [ATN246]", "values": [{"measurement": "Inhibits Angiogenesis (Matrigel® assay)", "setting": "HUVEC", "value": "No"}, {"measurement": "Inhibits Angiogenesis (Matrigel® assay)", "setting": "HUVEC; listed as APPHG", "value": "no effect on neovascularization"}]}
{"molecule": "His-Pro-Pro-His-Gly (HPPHG; printed: His-Pro-Pro-His-Gly) [ATN228]", "values": [{"measurement": "Inhibits Angiogenesis (Matrigel® assay)", "setting": "HUVEC", "value": "Yes"}, {"measurement": "Inhibits Angiogenesis (Matrigel® assay)", "setting": "HUVEC; listed as HPPHG", "value": "active"}]}
{"molecule": "HPRG: Histidine proline rich glycoprotein; rabbit HPRG has SEQ ID NO:3; applicants' designation ATN-234 (protein, UniProt P04196 19-525, looked up) Histidine-rich glycoprotein: VSPTDCSAVEPEAEKALDLINKRRRDGYLFQLLRIADAHLDRVENTTVYYLVLDVQESDCSVLSRKYWNDCEPPDSRRPSEIVIGQCKVIATRHSHESQDLRVIDFNCTTSSVSSALANTKDSPVLIDFFEDTERYRKQANKALEKYKEENDDFASFRVDRIERVARVRGGEGTGYFVDFSVRNCPRHHFPRHPNVFGFCRADLFYDVEALDLESPKNLVINCEVFDPQEHENINGVPPHLGHPFHWGGHERSSTTKPPFKPHGSRDHHHPHKPHEHGPPPPPDERDHSHGPPLPQGPPPLLPMSCSSCQHATFGTNGAQRHSHNNNSSDLHPHKHHSHEQHPHGHHPHAHHPHEHDTHRQHPHGHHPHGHHPHGHHPHGHHPHGHHPHCHDFQDYGPCDPPPHNQGHCCHGHGPPPGHLRRRGPGKGPRPFHCRQIGSVYRLPPLRKGEVLPLPEANFPSFPLPHHKHPLKPDNQPFPQSVSESCPGKFKSGFPQVSMFFTHTFPK", "values": [{"measurement": "neovessel formation (blood vessel number)", "setting": "[1]", "value": "capable of inhibiting neovessel formation; also recorded: inhibit angiogenesis"}, {"measurement": "inhibition of bFGF-stimulated proliferation of HUVEC", "setting": "[2]; 100 nM, FIG. 2A", "value": "almost complete"}, {"measurement": "inhibition of bFGF-stimulated proliferation of HUVEC", "setting": "[2]; concentration not given, FIGS. 2A, 2B", "value": "inhibit proliferation"}, {"measurement": "inhibition of angiogenesis (hemoglobin in plug)", "setting": "[3]", "value": "completely inhibited angiogenesis; also recorded: inhibit angiogenesis"}, {"measurement": "inhibition of 3LL tumor-mediated angiogenesis", "setting": "[4]", "value": "inhibit 3LL tumor-mediated angiogenesis"}, {"measurement": "induction of caspase-3 activity", "setting": "caspase-3", "value": "induction of caspase-3"}, {"measurement": "endothelial cell tube formation on Matrigel", "setting": "HUVEC; 500 nM, stimulated with FGF-2, VEGF and PMA for 24 hours", "value": "almost completely disrupted tube formation; also recorded: inhibition of EC tube formation"}]}
